In patent US20090175858A1 (Merck KGaA, published 2009):

How the values were obtained:
[1] = target: T1, sEGFR (soluble extracellular region of EGFR), wild-type (UniProt P00533 25-645, limits assumed); test: SPR (Biacore 3000), equilibrium response, sEGFR over immobilized Fab72000
T1 construct: extracellular domain; also called EGFR soluble extracellular domain

[2] = target: T2, sEGFRd3 (isolated domain III of sEGFR; amino acids 310-514 of mature EGFR) (UniProt P00533 334-538); test: SPR (Biacore 3000), equilibrium response, sEGFRd3 over immobilized Fab72000
T2 construct: range 310-514; The range 310-514 counts on mature EGFR, not on the precursor; also called soluble extracellular EGFR domain III

sEGFR K454A/T459A/S460A = target: T3, sEGFR K454A/T459A/S460A (UniProt P00533 25-645, limits assumed); test: SPR, equilibrium response, mutated sEGFR passed over immobilized Fab72000 [2A]
T3 construct: extracellular domain; Positions are in mature EGFR numbering; also called triple alanine mutant

sEGFR T459A/S460A/K463A = target: T4, sEGFR T459A/S460A/K463A (UniProt P00533 25-645, limits assumed); test: as above
T4 construct: extracellular domain; Positions are in mature EGFR numbering; also called triple alanine mutant

Kd [1]: 103 nM
Kd [2]: 50.1 nM
binding result (sEGFR K454A/T459A/S460A): no binding (tested: 2000 nM)
binding result (sEGFR T459A/S460A/K463A): no binding (tested: 2000 nM)
B1: Fab fragment of matuzumab (Fab72000) (Fab, V domains shown)
VH: QVQLVQSGAEVKKPGASVKVSCKASGYTFTSHWMHWVRQAPGQGLEWIGEFNPSNGRTNYNEKFKSKATMTVDTSTNTAYMELSSLRSEDTAVYYCASRDYDYDGRYFDYWGQGTLVTVSS
VL: DIQMTQSPSSLSASVGDRVTITCSASSSVTYMYWYQQKPGKAPKLLIYDTSNLASGVPSRFSGSGSGTDYTFTISSLQPEDIATYYCQQWSSHIFTFGQGTKVEIKR
notes: also called Fab fragment of EMD 72000
